The record followed here is patent US20030054488A1 (published 2003).

Data set [1] concerns the molecule itself. The experiment in a line: gel filtration HPLC and analytical ultracentrifugation (main population 310±10 kDa). As to the method:
FIG. 11. rGPBP and rGPBPΔ26 form very active high molecular weight aggregates. About 300 μg of rGPBP (A) or rGPBPΔ26 (B) were subjected to gel filtration HPLC as described under Material and Methods. Vertical arrowheads and numbers respectively indicate the elution profile and molecular mass (kDa) of the molecular weight standards used. Larger aggregates eluted in the void volume (I), and the bulk of the material present in the samples eluted in the fractionation range of the column as a second peak between the 669 and 158 kDa markers (II). Fifteen microliters of the indicated minute fractions were subjected to SDS-PAGE and Coomasie blue staining. Five microliters of the same fractions were in vitro phosphorylated as described in Materials and Methods, and the reaction stopped by boiling in SDS sample buffer. […]
Gel-filtration HPLC. […] The material was eluted from the column at 0.5 ml/min, monitored at 220 nm and minute fractions collected.
rGPBP and rGPBP-26 exist as very active high molecular weight aggregates. Gel filtration analysis of affinity-purified rGPBP or rGPBPΔ26 yielded two chromatographic peaks (I and II), both displaying higher MW than expected for the individual molecular species, as determined by SDS-PAGE studies (89 kDa and 84 kDa, respectively ) (FIG. 11). […] ATP, and analyzed by immunoblot and autoradiography.

Data set [2] has as its target T1, GPpep1.
T1 chain: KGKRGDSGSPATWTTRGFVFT

B1: FLAG-tagged recombinant GPBPΔ26 (rGPBPΔ26) (enzyme)
chain: DYKDDDDKMSDNQSWNSSGSEEDPETESGPPVERCGVLSKWTNYIHGWQDRWVVLKNNALSYYKSEDETEYGCRGSICLSKAVITPHDFDECRFDISVNDSVWYLRAQDPDHRQQWIDAIEQHKTESGYGSESSLRRHGSMVSLVSGASGYSATSTSSFKKGHSLREKLAEMETFRDILCRQVDTLQKYFDACADAVSKDELQRDKVVEDDEDDFPTTRSDGDFLHSTNGNKEKLFPHVTPKGINGIDFKGEAITFKATTAGILATLSHCIELMVKREDSWQKRLDKETEKKRRTEEAYKNAMTELKKKSHFGGPDYEEGPNSLINEEEFFDAVEAALDRQDKIEEQSQSEKVRLHWPTSLPSGDAFSSVGTHRFVQKVEEMVQNHMTYSLQDVGGDANWQLVVEEGEMKVYRREVEENGIVLDPLKATHAVKGVTGHEVCNYFWNVDVRNDWETTIENFHVVETLADNAIIIYQTHKRVWPASQRDVLYLSVIRKIPALTENDPETWIVCNFSVDHDSAPLNNRCVRAKINVAMICQTLVSPPEGNQEISRDNILCKITYVANVNPGGWAPASVLRAVAKREYPKFLKRFTSYVQEKTAGKPILF
notes: From pHIL-FLAG-n4'Δ26 in Pichia pastoris, made by deleting the 78-bp exon from pHIL-FLAG-n4'
For the protein B1, the binding result in data set [1] was “binds”. Besides, the “trans-phosphorylation activity with GPpep1” value in data set [2] was “the reduced in-solution auto- and trans-phosphorylation activities displayed by rGPBPΔ26”.
